Reference: the supplement of paper PMC11246515
± gives the standard deviation of the averaged measurements.

Assay: total protein half-life in vivo (active degradation + dilution); higher = more stable protein
[1] = E. coli NCM3722 delta-clpP delta-lon delta-hslV, growth: N-lim chemostat, doubling time 6 h
[2] = wild type E. coli NCM3722, growth: C-lim chemostat, doubling time 3 h
[3] = wild type E. coli NCM3722, growth: C-lim chemostat, doubling time 6 h
[4] = wild type E. coli NCM3722, growth: C-lim chemostat, doubling time 12 h
[5] = E. coli NCM3722 delta-clpP, growth: N-lim chemostat, doubling time 6 h
[6] = E. coli NCM3722 delta-lon, growth: N-lim chemostat, doubling time 6 h
[7] = E. coli NCM3722 delta-smpB, growth: N-lim chemostat, doubling time 6 h
[8] = wild type E. coli NCM3722, growth: N-lim chemostat, doubling time 6 h
[9] = wild type E. coli NCM3722, growth: N-lim chemostat, doubling time 12 h
[10] = wild type E. coli NCM3722, growth: P-lim chemostat, doubling time 6 h
[11] = wild type E. coli NCM3722, growth: P-lim chemostat, doubling time 12 h
[12] = E. coli NCM3722 delta-hslV, growth: N-lim chemostat, doubling time 6 h

| Sequence | total protein half-life in vivo [1] [h] | total protein half-life in vivo [2] [h] | total protein half-life in vivo [3] [h] | total protein half-life in vivo [4] [h] | total protein half-life in vivo [5] [h] | total protein half-life in vivo [6] [h] | total protein half-life in vivo [7] [h] | total protein half-life in vivo [8] [h] | total protein half-life in vivo [9] [h] | total protein half-life in vivo [10] [h] | total protein half-life in vivo [11] [h] | total protein half-life in vivo [12] [h] |
| --- | --- | --- | --- | --- | --- | --- | --- | --- | --- | --- | --- | --- |
| MDKELPWLADNAQLELKYKKGKTPLSHRRWPGEPVSVITGSLIQTLGDELLQKAEKKKNIVWRYENFSLEWQSAITQAINLIGEHKPSIPARTMAALACIAQNDSQQLLDEIVQQEGLEYATEVVIARQFIARCYESDPLVVTLQYQDEDYGYGYRSETYNEFDLRLRKHLSLAEESCWQRCADKLIAALPGINKVRRPFIALILPEKPEIANELVGLECPRTHFHSKEWLKVVANDPTAVRKLEHYWSQDIFSDREASYMSHENHFGYAACAALLREQGLAAIPRLAMYAHKEDCGSLLVQINHPQVIRTLLLVADKNKPSLQRVAKYHKNFPHATLAALAELLALTEPPARPGYPIIEDKKLPAQQKARDEYWRTLLQTLMASQPQLAAEVMPWLSTQPQSVLKSYLSAPPKPVIDGTDNSNLPEILVSPPWRSKKKMTAPRLDLAPLELTPQVYWQPGEQERLAATEPARYFSTESLAQRMEQKSGRVVLQELGFGDDVWLFLNYILPGKLDAARNSLFVQWHYYQGRVEEILNGWNSPEAQLAEQALRSGHIEALINIWENDNYSHYRPEKSVWNLYLLAQLPREMALTFWLRINEKKHLFAGEDYFLSILGLDALPGLLLAFSHRPKETFPLILNFGATELALPVAHVWRRFAAQRDLARQWILQWPEHTASALIPLVFTKPSDNSEAALLALRLLYEQGHGELLQTVANRWQRTDVWSALEQLLKQGPMDIYPARIPKAPDFWHPQMWSRPRLITNNQTVTNDALEIIGEMLRFTQGGRFYSGLEQLKTFCQPQTLAAFAWDLFTAWQQAGAPAKDNWAFLALSLFGDESTARDLTTQILAWPQEGKSARAVSGLNILTLMNNDMALIQLHHISQRAKSRPLRDNAAEFLQVVAENRGLSQEELADRLVPTLGLDDPQALSFDFGPRQFTVRFDENLNPVIFDQQNVRQKSVPRLRADDDQLKAPEALARLKGLKKDATQVSKNLLPRLETALRTTRRWSLADFHSLFVNHPFTRLVTQRLIWGVYPANEPRCLLKAFRVAAEGEFCNAQDEPIDLPADALIGIAHPLEMTAEMRSEFAQLFADYEIMPPFRQLSRRTVLLTPDESTSNSLTRWEGKSATVGQLMGMRYKGWESGYEDAFVYNLGEYRLVLKFSPGFNHYNVDSKALMSFRSLRVYRDNKSVTFAELDVFDLSEALSAPDVIFH | 6.38 | – | – | – | – | – | – | – | – | – | – | – |
| MLRPVETPTREIKKLDGLWAFSLDRENCGIDQRWWESALQESRAIAVPGSFNDQFADADIRNYAGNVWYQREVFIPKGWAGQRIVLRFDAVTHYGKVWVNNQEVMEHQGGYTPFEADVTPYVIAGKSVRITVCVNNELNWQTIPPGMVITDENGKKKQSYFHDFFNYAGIHRSVMLYTTPNTWVDDITVVTHVAQDCNHASVDWQVVANGDVSVELRDADQQVVATGQGTSGTLQVVNPHLWQPGEGYLYELCVTAKSQTECDIYPLRVGIRSVAVKGEQFLINHKPFYFTGFGRHEDADLRGKGFDNVLMVHDHALMDWIGANSYRTSHYPYAEEMLDWADEHGIVVIDETAAVGFNLSLGIGFEAGNKPKELYSEEAVNGETQQAHLQAIKELIARDKNHPSVVMWSIANEPDTRPQGAREYFAPLAEATRKLDPTRPITCVNVMFCDAHTDTISDLFDVLCLNRYYGWYVQSGDLETAEKVLEKELLAWQEKLHQPIIITEYGVDTLAGLHSMYTDMWSEEYQCAWLDMYHRVFDRVSAVVGEQVWNFADFATSQGILRVGGNKKGIFTRDRKPKSAAFLLQKRWTGMNFGEKPQQGGKQ | – | 2.85 ± 0.27 | 5.46 ± 0.52 | 8.91 ± 1.3 | – | – | – | – | – | – | – | – |
| MDKKQVTDLRSELLDSRFGAKSISTIAESKRFPLHEMRDDVAFQIINDELYLDGNARQNLATFCQTWDDENVHKLMDLSINKNWIDKEEYPQSAAIDLRCVNMVADLWHAPAPKNGQAVGTNTIGSSEACMLGGMAMKWRWRKRMEAAGKPTDKPNLVCGPVQICWHKFARYWDVELREIPMRPGQLFMDPKRMIEACDENTIGVVPTFGVTYTGNYEFPQPLHDALDKFQADTGIDIDMHIDAASGGFLAPFVAPDIVWDFRLPRVKSISASGHKFGLAPLGCGWVIWRDEEALPQELVFNVDYLGGQIGTFAINFSRPAGQVIAQYYEFLRLGREGYTKVQNASYQVAAYLADEIAKLGPYEFICTGRPDEGIPAVCFKLKDGEDPGYTLYDLSERLRLRGWQVPAFTLGGEATDIVVMRIMCRRGFEMDFAELLLEDYKASLKYLSDHPKLQGIAQQNSFKHT | 6.14 ± 0.21 | 3.41 | 6.25 ± 0.14 | – | 6.13 ± 0.6 | 6.24 ± 0.063 | 5.24 ± 0.19 | 5.7107 ± 0.00073 | 10.9 ± 0.24 | 5.97 ± 0.86 | 13.1 ± 0.33 | – |
| MSHLKDPTTQYYTGEYPKQKQPTPGIQAKMTPVPDCGEKTYVGSGRLKDRKALVTGGDSGIGRAAAIAYAREGADVAISYLPVEEEDAQDVKKIIEECGRKAVLLPGDLSDEKFARSLVHEAHKALGGLDIMALVAGKQVAIPDIADLTSEQFQKTFAINVFALFWLTQEAIPLLPKGASIITTSSIQAYQPSPHLLDYAATKAAILNYSRGLAKQVAEKGIRVNIVAPGPIWTALQISGGQTQDKIPQFGQQTPMKRAGQPAELAPVYVYLASQESSYVTAEVHGVCGGEHLG [P0AG84] | 5.31 ± 0.2 | 3.13 ± 0.54 | 6.3 ± 0.59 | 11.4 ± 2.8 | 5.27 ± 0.099 | 5.57 ± 0.34 | 5.06 ± 0.66 | 5.32 ± 0.27 | 9.18 ± 0.35 | 5.5 ± 0.43 | 10.73 ± 0.025 | 5.82 ± 0.34 |
| MANVEIYTKETCPYCHRAKALLSSKGVSFQELPIDGNAAKREEMIKRSGRTTVPQIFIDAQHIGGCDDLYALDARGGLDPLLK [P0AC62] | 6.58 | 2.89 ± 0.5 | 5.23 ± 1 | – | 5.58 ± 0.71 | 5.33 ± 0.32 | 5.71 ± 1.9 | 4.68 | 9.44 ± 2.5 | 5.35 ± 0.39 | 12.6 ± 1.1 | 4.93 ± 0.091 |
| MRILLIEDDMLIGDGIKTGLSKMGFSVDWFTQGRQGKEALYSAPYDAVILDLTLPGMDGRDILREWREKGQREPVLILTARDALAERVEGLRLGADDYLCKPFALIEVAARLEALMRRTNGQASNELRHGNVMLDPGKRIATLAGEPLTLKPKEFALLELLMRNAGRVLSRKLIEEKLYTWDEEVTSNAVEVHVHHLRRKLGSDFIRTVHGIGYTLGEK | 4.652 ± 0.039 | 2.92 ± 0.042 | 5.51 ± 0.24 | 10.8 ± 1.9 | 4.22 ± 0.3 | 4.5 ± 0.27 | 4.06 ± 0.37 | 4.2 ± 0.12 | 6.35 ± 0.32 | 5.267 ± 0.0074 | 11 ± 0.5 | 4.1 ± 0.33 |
| MKTLLIIDANLGQARAYMAKTLLGAAARKAKLEIIDNPNDAEMAIVLGDSIPNDSALNGKNVWLGDISRAVAHPELFLSEAKGHAKPYTAPVAATAPVAASGPKRVVAVTACPTGVAHTFMAAEAIETEAKKRGWWVKVETRGSVGAGNAITPEEVAAADLVIVAADIEVDLAKFAGKPMYRTSTGLALKKTAQELDKAVAEATPYEPAGKAQTATTESKKESAGAYRHLLTGVSYMLPMVVAGGLCIALSFAFGIEAFKEPGTLAAALMQIGGGSAFALMVPVLAGYIAFSIADRPGLTPGLIGGMLAVSTGSGFIGGIIAGFLAGYIAKLISTQLKLPQSMEALKPILIIPLISSLVVGLAMIYLIGKPVAGILEGLTHWLQTMGTANAVLLGAILGGMMCTDMGGPVNKAAYAFGVGLLSTQTYGPMAAIMAAGMVPPLAMGLATMVARRKFDKAQQEGGKAALVLGLCFISEGAIPFAARDPMRVLPCCIVGGALTGAISMAIGAKLMAPHGGLFVLLIPGAITPVLGYLVAIIAGTLVAGLAYAFLKRPEVDAVAKAA | 6.73 ± 0.62 | 3.54 ± 0.33 | 6.11 ± 0.28 | 13.4 ± 0.7 | – | 5.76 ± 0.27 | 5.89 ± 0.43 | 5.89 ± 0.44 | 11.6 ± 0.25 | 6.29 ± 0.29 | 11.9 ± 0.6 | 5.956 ± 0.014 |
| MKPFLRWCFVATALTLAGCSNTSWRKSEVLAVPLQPTLQQEVILARMEQILASRALTDDERAQLLYERGVLYDSLGLRALARNDFSQALAIRPDMPEVFNYLGIYLTQAGNFDAAYEAFDSVLELDPTYNYAHLNRGIALYYGGRDKLAQDDLLAFYQDDPNDPFRSLWLYLAEQKLDEKQAKEVLKQHFEKSDKEQWGWNIVEFYLGNISEQTLMERLKADATDNTSLAEHLSETNFYLGKYYLSLGDLDSATALFKLAVANNVHNFVEHRYALLELSLLGQDQDDLAESDQQ [P0AFB1] | 6.43 ± 0.4 | 3.15 ± 0.24 | 5.9 ± 0.35 | 11.3 ± 0.48 | 6.3 ± 0.2 | 6.621 ± 0.019 | 6.66 ± 1.2 | 6.12 ± 0.22 | 13.5 ± 2 | 7.56 ± 0.19 | 13.1 ± 0.29 | – |
| MSLAKDNIWKLLAPLVVMGVMFLIPVPDGMPPQAWHYFAVFVAMIVGMILEPIPATAISFIAVTICVIGSNYLLFDAKELADPAFNAQKQALKWGLAGFSSTTVWLVFGAFIFALGYEVSGLGRRIALFLVKFMGKRTLTLGYAIVIIDILLAPFTPSNTARTGGTVFPVIKNLPPLFKSFPNDPSARRIGGYLMWMMVISTSLSSSMFVTGAAPNVLGLEFVSKIAGIQISWLQWFLCFLPVGVILLIIAPWLSYVLYKPEITHSEEVATWAGDELKTMGALTRREWTLIGLVLLSLGLWVFGSEVINATAVGLLAVSLMLALHVVPWKDITRYNSAWNTLVNLATLVVMANGLTRSGFIDWFAGTMSTHLEGFSPNATVIVLVLVFYFAHYLFASLSAHTATMLPVILAVGKGIPGVPMEQLCILLVLSIGIMGCLTPYATGPGVIIYGCGYVKSKDYWRLGAIFGVIYISMLLLVGWPILAMWN [P0AE74] | – | – | – | – | 7.68 | – | – | – | – | – | – | – |
| MRDIQMVLERWGAWAANNHEDVTWSSIAAGFKGLITSKVKSRPQCCDDDAMIICGCMARLKKNNSDLHDLLVDYYVVGMTFMSLAGKHCCSDGYIGKRLQKAEGIIEGMLMALDIRLEMDIVVNNSN | 2.96 | – | – | 8.73 | – | – | – | – | – | 5.67 | 10.4 ± 0.22 | – |
| MYQPVALFIGLRYMRGRAADRFGRFVSWLSTIGITLGVMALVTVLSVMNGFERELQNNILGLMPQAILSSEHGSLNPQQLPETAVKLDGVNRVAPITTGDVVLQSARSVAVGVMLGIDPAQKDPLTPYLVNVKQTDLEPGKYNVILGEQLASQLGVNRGDQIRVMVPSASQFTPMGRIPSQRLFNVIGTFAANSEVDGYEMLVNIEDASRLMRYPAGNITGWRLWLDEPLKVDSLSQQKLPEGSKWQDWRDRKGELFQAVRMEKNMMGLLLSLIVAVAAFNIITSLGLMVMEKQGEVAILQTQGLTPRQIMMVFMVQGASAGIIGAILGAALGALLASQLNNLMPIIGVLLDGAALPVAIEPLQVIVIALVAMAIALLSTLYPSWRAAATQPAEALRYE [P0ADC3] | 6.47 ± 0.46 | 3.11 ± 0.068 | 5.78 ± 1.3 | 12.3 ± 0.59 | 6.838 ± 0.034 | 6.53 ± 1.3 | 6.43 ± 0.65 | 5.8 ± 0.06 | 13.1 ± 1.6 | 6.178 ± 0.04 | 12.3 ± 1.1 | 6.01 ± 0.34 |
| MMEFILSHVEKGVMTLTLNRPERLNSFNDEMHAQLAECLKQVERDDTIRCLLLTGAGRGFCAGQDLNDRNVDPTGPAPDLGMSVERFYNPLVRRLAKLPKPVICAVNGVAAGAGATLALGGDIVIAARSAKFVMAFSKLGLIPDCGGTWLLPRVAGRARAMGLALLGNQLSAEQAHEWGMIWQVVDDETLADTAQQLARHLATQPTFGLGLIKQAINSAETNTLDTQLDLERDYQRLAGRSADYREGVSAFLAKRSPQFTGK | 4.04 | – | – | – | – | – | – | – | – | – | – | – |
